Experimental data from the supplement of paper PMC7125110.
± gives the standard error. This sample holds only a part of the variants without activity.

B1: glmS ribozyme (parent)
chain: AUAAAAGCGCCAGAACUACAGAAAUGUAGUUGACGAGGAGGAGGUUUAUCGAAUUUUCGGCGGAUGCCUCCAAA

Key:
Details in all cases: with glucosamine-6-phosphate
glucosamine-6-phosphate [1] = variants of: B1; assay: self-cleavage kobs at 40 uM GlcN6P; higher = faster cleavage; RNA array
Summary of the method: (§1)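 Glucosamine-6-phosphate, from 40 μM to 10 mM in HEPES/KCl/Mg(OAc)2 buffer, was flowed over sequenced MiSeq chips carrying barcoded ribozyme variants transcribed in situ by E. coli RNA polymerase. A hybridised Cy3 probe tracked the variants at 37 °C as tiles were imaged over ~14 h. kobs, kcat and KM were obtained by fitting normalised per-tile medians to exponential decays and then applying weighted Michaelis–Menten fits across concentrations.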

glucosamine-6-phosphate [2] = variants of: B1; assay: self-cleavage kobs at 160 uM GlcN6P; higher = faster cleavage; RNA array
Summary of the method: as §1

glucosamine-6-phosphate [3] = variants of: B1; assay: self-cleavage kobs at 10000 uM GlcN6P; higher = faster cleavage; RNA array
Summary of the method: as §1

glucosamine-6-phosphate [4] = variants of: B1; assay: self-cleavage kobs at 640 uM GlcN6P; higher = faster cleavage; RNA array
Summary of the method: as §1

glucosamine-6-phosphate [5] = variants of: B1; assay: self-cleavage kobs at 2500 uM GlcN6P; higher = faster cleavage; RNA array
Summary of the method: as §1

Row | Variant | self-cleavage kobs at 40 uM GlcN6P (glucosamine-6-phosphate [1]) [s⁻¹] | self-cleavage kobs at 160 uM GlcN6P (glucosamine-6-phosphate [2]) [s⁻¹] | self-cleavage kobs at 10000 uM GlcN6P (glucosamine-6-phosphate [3]) [s⁻¹] | self-cleavage kobs at 640 uM GlcN6P (glucosamine-6-phosphate [4]) [s⁻¹] | self-cleavage kobs at 2500 uM GlcN6P (glucosamine-6-phosphate [5]) [s⁻¹]
1 | G63C A64C | < 1e-05 | < 1e-05 | < 1e-05 | – | –
2 | G35U A53G | < 1e-05 | < 1e-05 | < 1e-05 | < 1e-05 | < 1e-05
3 | A15G G41A U57G | < 1e-05 | – | – | – | –
4 | G41A U49C C67U | < 1e-05 | – | – | – | –
5 | U30G A52C U65G C67G C70U | < 1e-05 | – | – | – | –
6 | C10U A15U G44U U46G G63U A64G | < 1e-05 | – | < 1e-05 | – | –
7 | G41C U45A U57A C61G | < 1e-05 | – | < 1e-05 | – | –
8 | A14U G29U G35A | < 1e-05 | – | – | – | –
9 | C34A C50G C68G | 0.000116 ± 2.4e-05 | – | 6.65e-05 ± 1.4e-05 | – | –
10 | A6G A33U A53U | < 1e-05 | – | < 1e-05 | – | –
11 | A6G G43C | < 1e-05 | < 1e-05 | < 1e-05 | < 1e-05 | < 1e-05
12 | U30A G63C | < 1e-05 | < 1e-05 | < 1e-05 | – | < 1e-05
13 | G59A G62C | < 1e-05 | < 1e-05 | < 1e-05 | < 1e-05 | < 1e-05
14 | A6C A12G U69G | < 1e-05 | < 1e-05 | < 1e-05 | – | –
15 | A12C A39C C67G | < 1e-05 | – | – | – | –
16 | G44A U56C C61U | < 1e-05 | – | < 1e-05 | < 1e-05 | < 1e-05
17 | C16U A33U C68A | < 1e-05 | < 1e-05 | – | – | –
18 | C16G U49C | < 1e-05 | < 1e-05 | < 1e-05 | – | < 1e-05
19 | A6U A12G A42C A52U A64G C68G | < 1e-05 | – | < 1e-05 | – | < 1e-05
20 | A36U G59U | < 1e-05 | – | < 1e-05 | < 1e-05 | –
21 | A15G U30A G41A G51U G62A | < 1e-05 | – | – | – | < 1e-05
22 | G44C G59C C61A | < 1e-05 | < 1e-05 | < 1e-05 | < 1e-05 | < 1e-05

Row | Variant | self-cleavage kobs at 40 uM GlcN6P (glucosamine-6-phosphate [1]) [s⁻¹] | self-cleavage kobs at 160 uM GlcN6P (glucosamine-6-phosphate [2]) [s⁻¹] | self-cleavage kobs at 10000 uM GlcN6P (glucosamine-6-phosphate [3]) [s⁻¹] | self-cleavage kobs at 640 uM GlcN6P (glucosamine-6-phosphate [4]) [s⁻¹] | self-cleavage kobs at 2500 uM GlcN6P (glucosamine-6-phosphate [5]) [s⁻¹]
23 | G13A G43U | < 1e-05 | < 1e-05 | – | < 1e-05 | –
24 | A12G A36G | < 1e-05 | < 1e-05 | < 1e-05 | < 1e-05 | –
25 | G13C A36G | < 1e-05 | < 1e-05 | < 1e-05 | – | –
26 | U54A C71U | 0.00124 ± 0.00023 | 0.00159 ± 0.00033 | 0.0214 ± 0.01 | 0.00337 ± 0.00063 | 0.00313 ± 0.00083
27 | C11U G63A | < 1e-05 | < 1e-05 | < 1e-05 | < 1e-05 | < 1e-05
28 | C10G A33U G35U G60U | < 1e-05 | – | < 1e-05 | – | –
29 | G44A U46C A53U C61U | < 1e-05 | – | – | – | –
30 | C10A U30C C61A | < 1e-05 | – | – | – | –
31 | G9A G13A G63C | < 1e-05 | – | < 1e-05 | – | –
32 | C34U A42G | < 1e-05 | < 1e-05 | < 1e-05 | – | –
33 | C34G A39U | < 1e-05 | – | < 1e-05 | < 1e-05 | < 1e-05
34 | U46G U54C C71U | 8.18e-05 ± 1.8e-05 | – | 0.00463 ± 0.0014 | – | 0.00226 ± 0.00098
35 | A14C C50G A64G | 4.29e-05 ± 2.1e-05 | – | – | – | –
36 | C11U A12U G43A C61G | < 1e-05 | – | < 1e-05 | – | –
37 | A12U C16U | 0.00238 ± 0.0003 | 0.00439 ± 0.00083 | 0.0879 ± 0.035 | 0.0232 ± 0.0037 | 0.076 ± 0.027
38 | C34G A53C | < 1e-05 | < 1e-05 | < 1e-05 | < 1e-05 | < 1e-05
39 | G38A A39G | < 1e-05 | < 1e-05 | – | < 1e-05 | < 1e-05
40 | A36G C50G C68U | 0.000269 ± 0.0001 | 0.000434 ± 0.00013 | 0.000205 ± 5.4e-05 | 0.000436 ± 0.00017 | 9.73e-05 ± 3.6e-05
41 | A33C A48G | < 1e-05 | < 1e-05 | < 1e-05 | < 1e-05 | –
42 | C16U C50A A52C U65C G66U | < 1e-05 | – | – | < 1e-05 | –
43 | C34U G41U G62U | < 1e-05 | – | – | – | –
44 | C16A C50G | 0.000251 ± 0.0001 | 7.18e-05 ± 1.9e-05 | 7.6e-05 ± 3.6e-05 | 4.7e-05 ± 1.7e-05 | 5.49e-05 ± 1.1e-05
